Measured values as given in patent publication US5973110A, “Cytotoxic T-lymphocyte antigen as cysteine protease inhibitor” (Bayer Corporation, priority 1995, dated 1999).
Each block holds one molecule with its values, some of them ahead of it. No end group written: not given here.

Tests used:
[1] = tested on: cartilage proteoglycan degradation; details: at 100 uM concentrations; cited from earlier work
[2] = tested on: articular cartilage explants from calf knee joints; test: Micro organ culture assay (MOCA): IL-1 induced proteoglycan release from articular cartilage explants; format: cell-based; details: IL-1 induced degradation; p117 10 uM (best concentration)
Text: The assay system used for testing the peptides for inhibitory activity of proteoglycan release is a micro organ culture assay (MOCA). Papain; cetyl pyridinium chloride and chondroitin sulfate type C was purchased from Sigma Chemical Co. (St. Louis, Mo.). Interleukin 1 alpha was purchased from Collaborative Research. ABCase, chrondroitinase, ABC lyase, and keratanase were obtained from ICI. Na ^35 SO4 was purchased from NEN.
Articular cartilage explants from calf knee joints were maintained in culture in DMEM medium containing 20 uCi/ml Na ^35 SO4 for 48 hours for the incorporation of label into newly synthesized proteoglycan (PG). The radiolabelled medium was then removed, the radiolabelled explants washed 3×30 ml cold DMEM and placed into a 96 well plate with or without IL-1 (Interleukin-1 alpha, 50 U/ml) and various concentrations of p117. The explants were incubated first for 24 hours in the presence of IL-1 in order to ensure initiation of IL-1 induced auto-catalysis prior to the addition of various metalloprotease inhibitors for an additional 72 hours.
The newly synthesized radiolabelled proteoglycans released during the cultivation period were subjected to enzymatic digestion with papain. […] The filter was dried and counted after addition of 10 mls of scintillation cocktail (scintillant).

human liver Cathepsin L [3] = biological target: T1, human liver Cathepsin L (Homo sapiens, UniProt P07711); test: Cathepsin L assay (fluorescence, Z-Phe-Arg-AMC hydrolysis); format: biochemical; design: from tissue; b54 says 'human kidney cell cathepsins'
Target sequence in this assay (P07711 114-288 limits assumed): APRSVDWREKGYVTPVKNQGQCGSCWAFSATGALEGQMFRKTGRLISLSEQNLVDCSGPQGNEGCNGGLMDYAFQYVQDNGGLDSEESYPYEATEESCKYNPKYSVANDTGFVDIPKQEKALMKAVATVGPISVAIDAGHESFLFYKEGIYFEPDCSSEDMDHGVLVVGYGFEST
Target sequence in this assay (P07711 292-333 limits assumed): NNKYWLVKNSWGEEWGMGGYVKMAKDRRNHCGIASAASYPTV
Protocol: A fluorescence based assay was set up according to Barrett and Kirschke (Barrett et al., 1981, Meth. in Enz., 80:535).
After an incubation period of 6 minutes at room temperature, 1500 μl of 0.1% Brij 35 was added. The substrate Z-Phe-Arg-AMC (AMC is aminomethyl-coumarin) was added at a final concentration of either 2.5 μM or 5.0 μM.
The fluorescence of the free aminomethyl-coumarin was measured in an SLM 4800s fluorimeter by excitation at 370 nm and emission at 432 nm over a six minute time period. […] In order to calculate the velocities, a linear least squares analysis was performed over the initial linear part of the data. […]
These peptides were tested for inhibition of Cathepsin L activity using the assays described previously. Briefly, Cathepsin L (19 pM final as determined by active site titration using E-64, Barret & Kirschke, 1991) was added to 750 uL of assay buffer consisting of 340 nM sodium acetate--60 mM acetic acid (pH 5.5), 4 mM disodium EDTA, and 8 mM DTT. […] The fluorescence of the free aminomethylcoumarin was measured in an SLM 4800s fluorimeter at excitation of 370 nm and an emission at 432 nm over a 6 minute time period. Fluorescence was converted to uM AMC released by using a standard curve generated by plotting uM AMC vs. fluorescence, and plotted vs. time. […]

human liver Cathepsin L [4] = biological target: T1, human liver Cathepsin L
human liver Cathepsin L [5] = biological target: T1, human liver Cathepsin L; remark: listed apart in the source
human liver Cathepsin L [6] = biological target: T1, human liver Cathepsin L; remark: listed apart in the source
cartilage degradation = details: rabbits, IL-1 injected into joint capsule; cited from earlier work

Molecule: CC(C)C[C@H](NC(=O)[C@H]1O[C@@H]1C(=O)O)C(=O)NCCCCN=C(N)N (relative stereo) [E64, trans-epoxysuccinyl-L-leucylamido-(4-guanido)butane]
inhibition of IL-1 stimulated cartilage proteoglycan degradation (in words) [1]: did not work

Molecule: CC(C)CCNC(=O)[C@H](CC(C)C)NC(=O)[C@H]1O[C@@H]1C(=O)O [Ep475]
inhibition of IL-1 stimulated cartilage proteoglycan degradation (in words) [1]: did not work

Molecule: ENKKKIEAHNADYERGKTSFC [p089]
inhibition of hydrolysis of Z-Phe-Arg-NMec(AMC) by Cathepsin L (fluorescence) (% inhibition at 10 uM) (human liver Cathepsin L [6]): 25

B1: PN-1: large serine protease inhibitor PN-1 (43 KD) (protein, UniProt P07093 20-398, looked up)
Glia-derived nexin: SHFNPLSLEELGSNTGIQVFNQIVKSRPHDNIVISPHGIASVLGMLQLGADGRTKKQLAMVMRYGVNGVGKILKKINKAIVSKKNKDIVTVANAVFVKNASEIEVPFVTRNKDVFQCEVRNVNFEDPASACDSINAWVKNETRDMIDNLLSPDLIDGVLTRLVLVNAVYFKGLWKSRFQPENTKKRTFVAADGKSYQVPMLAQLSVFRCGSTSAPNDLWYNFIELPYHGESISMLIALPTESSTPLSAIIPHISTKTIDSWMSIMVPKRVQVILPKFTAVAQTDLKEPLKVLGITDMFDSSKANFAKITTGSENLHVSHILQKAKIEVSEDGTKASAATTAILIARSSPPWFIVDRPFLFFIRHNPTGAVLFMGQINKP
effect on IL-1 induced cartilage degradation (in words) (cartilage degradation): can ameliorate this degradation

Molecule: CRGEMAPDLPEYEDLG [p092]
i.c. 50 (human liver Cathepsin L [6]): 41 µM

Molecule: YSLDEERHRRLMWEENKKKIEAH [p117]
i.c. 50 (human liver Cathepsin L [6]): 5.3 µM

Continued, in another order:

IC50 (human liver Cathepsin L [3]; Cathepsin L 19 pM, 5.0 uM Z-Phe-Arg-NMec(AMC), Dixon plot V-/V+ vs. peptide concentration, read-out: i.c. 50 (synthetic peptides, Cathepsin L)): 5.3 µM | inhibitory activity of the peptides (in words) (human liver Cathepsin L [3]; summary in Example 7): best activity
Molecule: YSLDEERHRRLMWEENKKKIEAH [p117]
% inhibition of proteoglycan release [2]: about 30%

i.c. 50 in Cathepsin L Assay (human liver Cathepsin L [4]): 1.1 nM
Molecule: recombinant (murine) CTLA-2β, dimeric form

i.c. 50 in Cathepsin L Assay (human liver Cathepsin L [4]): 18.2 nM | inhibition of hydrolysis of Z-Phe-Arg-AMC by Cathepsin L (fluorescence) (human liver Cathepsin L [5]): 60%
Molecule: recombinant (murine) CTLA-2β, monomeric form
